The subject of series [1] is ovarian cancer stem cell line A2780-SP cells. The series can be described thus: Affinity of CD166 aptamer to ovarian cancer stem cells by flow cytometry (FACS). The class given is binding. Conditions: for affinity: as found in Example 8 (FACS). On the procedure: It was confirmed whether the CD166 aptamer constructed in Example 7 recognized ovarian cancer cells and ovarian cancer stem cells. The following experiment was performed to analyze the interaction between the CD166 aptamer and the ovarian cancer cell line A2780 cells. First, each of the CD166 aptamer (AT-1, AT-2, AT-3, AT-4, AT-5 and AT-6) was dissolved in sterile tertiary water and then heated at 95° C. for 5 minutes. After heating, it was cooled to 25° C. The aptamer was added to the ovarian cancer cell line A2780 cells at a concentration of 500 nM, and then the cells were cultured at room temperature and stained. Thereafter, the cells reacted with the CD166 aptamer were analyzed using a flow cytometer (fluorescence activated cell sorter, FACS), and the results are shown in FIG. 18.
In addition, in the same manner as described above, the ovarian cancer stem cell line A2780-SP cells were reacted with the CD166 aptamer, and then FACS was performed, and the results are shown in FIG. 19.
The affinity of the CD166 aptamer AT-5 and the CD166 FACS antibody (PE Mouse Anti-Human CD166, Cat:559263, BD Pharminggen) as the control to the ovarian cancer stem cell line A2780-SP cells was compared.

Series [2] concerns CD166 expressing cells isolated from ovarian cancer stem cells. Put plainly: Cell adhesion experiment, CD166 expressing ovarian cancer stem cells. The class given is cell-based. To be noted: aptamer 500 nM, 1 hour, collagen-coated plate, FIG. 21. On the procedure: The effect of the CD166 aptamer on cell adhesion ability was confirmed using the CD166 aptamers AT3, AT4 and AT5. Specifically, CD166 expressing cells were isolated from ovarian cancer stem cells using the CD166 FACS antibody. Cell adhesion experiment of the CD166 aptamer was performed using the isolated cells. First, […] blocked with 20 μg/ml of collagen for 1 hour. After blocking, 0.1% bovine serum albumin (BSA) was added and incubated for 1 hour to limit non-specific binding. The isolated cells were each exposed to the CD166 aptamer (500 nM) for 1 hour and then fixed with 4% formaldehyde. The fixed cells were stained with hoest33342.

Series [3] deals with CD166-high cells of ovarian cancer stem cell line A2780-SP. The series can be described thus: Tumor formation from aptamer-treated A2780-SP cells inoculated subcutaneously. The class given is in vivo, nude mice. The protocol:
The effect of the CD166 aptamer AT-5 on tumor formation was confirmed. Specifically, cells in which the expression CD166 is high were isolated from the ovarian cancer stem cell line A2780-SP using a flow cytometer (ARIA3). The isolated cells were reacted with the CD166 aptamer AT-5 for 1 hour, respectively. The cells reacted with the aptamer (1×10^5 cells) were inoculated subcutaneously into nude mice. At this time, the aptamer-untreated cells were inoculated on the left side of nude mice, and the CD166 aptamer AT-5-treated cells were inoculated on the right side of nude mice. After inoculation, the tumor formation size was measured from the 18th day. Nude mice were euthanized on the 38th day of inoculation. Tumors were isolated from nude mice, and finally, the weight and size of the tumors were measured. The results of observation of the isolated tumors are shown in FIG. 26, the results of measuring the size of the tumors are shown in FIG. 27, and the results of measuring the weight of the tumors are shown in FIG. 28, respectively.

The subject of series [4] is patient-derived ovarian cancer stem cells. The series can be described thus: Affinity of CD166 aptamer to patient-derived ovarian cancer stem cells (FACS). The class given is binding. Conditions: FIG. 36A.
In series [5] the test system is focal adhesion signaling pathway in patient-derived ovarian cancer stem cells. Put plainly: Focal adhesion signaling pathway by Western blotting, patient-derived ovarian cancer stem cells. It is filed as cell-based. To be noted: aptamer 1 hour, FIG. 39. From the text:
(§1) CD166 expression was inhibited using siRNA in the ovarian cancer stem cell line A2780-SP, and the focal adhesion signaling pathway was confirmed in CD166 expression-inhibited cells through Western blotting. Specifically, in order to inhibit the expression of CD166, the control (si Control) (5′-UUCUCCGAACGUGUCACGUTT-3′ (SEQ ID NO: 23); 5′-ACGUGACACGUUCGGAGAATT-3′ (SEQ ID NO: 24) and si CD166 (5′-AAGCCCGAUGGCUCCCCAGUAUU-3′ (SEQ ID NO: 25); 5′-AAUACUGGGGAGCCAUCGGGCUU-3′ (SEQ ID NO: 26) were constructed. The expression of CD166 was inhibited by reacting the constructed siRNA and the ovarian cancer stem cell line A2780-SP cells, and the cells were cultured after inhibition of expression. After culturing for 48 hours, the cells were collected, and protein expression of FAK, SRC, Paxillin and CD44, which are known as major genes of the focal adhesion signaling pathway, was confirmed through Western blotting. Antibodies against CD166 (ab109215, Abcam), CD44 (5640S, Cell Signaling Technology), p-PAXILLIN (2541S, Cell Signaling Technology), p-SRC (2101S, Cell Signaling Technology), p-FAK (3284S, Cell Signaling Technology), FAK (3285S, Cell Signaling Technology) and GAPDH (MAB374, EMD Milliore Corp, Billerica, MA) were used as primary antibodies. The results of confirming the focal adhesion signaling pathway inhibitory activity in CD166 expression-inhibited cells are shown in FIG. 14.
The patient-derived ovarian cancer stem cells were reacted with the CD166 aptamers AT-3 and AT-5 for 1 hour, respectively, and then the focal adhesion signaling pathway was confirmed in CD166 expression-inhibited cells through Western blotting. The Western blotting was performed in the same manner as in Example 5.
Background: Immunoblotting shows a protein as a band on a membrane.

Series [6] deals with focal adhesion signaling pathway in mesenchymal stem cells. The series can be described thus: Focal adhesion signaling pathway by Western blotting, mesenchymal stem cells. It is filed as cell-based. To be noted: aptamer 1 hour, normal stem cells, FIG. 44.
Excerpt: as §1
The mesenchymal stem cells were reacted with the CD166 aptamer AT-5 for 1 hour, respectively, and then the focal adhesion signaling pathway was confirmed in CD166 expression-inhibited cells through Western blotting. The Western blotting was performed in the same manner as in Example 5. In addition, the focal adhesion signaling pathway by CD166 expression inhibition in the mesenchymal stem cells was confirmed by the method of Example 4, and the results are shown in FIG. 44.

[NapdU] = 5-(N-naphthylcarboxyamide)-2'-deoxyuridine

B1: AT5: 76-mer CD166 aptamer, N = NapdU: TCAGCCGCCAGCCAGTTCANNNGANAAAGCNCCGNNANCGGGCCCCNNGNAGAGNCANGACCAGAGCACCACAGAG (nucleic acid)
DNA: TCAGCCGCCAGCCAGTTCAUUUGAUAAAGCUCCGUUAUCGGGCCCCUUGUAGAGUCAUGACCAGAGCACCACAGAG
modifications: DNA, [NapdU] at 20, 21, 22, 25, 31, 35, 36, 38, 47, 48, 50, 55, 58, backbone not given here
As to B1, the “specificity of binding to ovarian cancer stem cells among the CD166 aptamers” value in series [1] (500 nM, FACS, FIG. 19) is on record as “most specifically binds”. In addition, in series [1], the affinity result is recorded as “high affinity”. The cell adhesion entry in series [2] is recorded as “reduced”. In series [3] (cells pre-reacted with aptamer 1 hour, 1×10^5 cells subcutaneous, nude mice, FIG. 26), the tumor formation result is given as “inhibited”. Moreover, the “size of the tumor” value in series [3] (vs aptamer untreated group, day 18 to 38, FIG. 27) is reported as “smaller”. In series [3] (vs control, day 38, FIG. 28), the “weight of the tumor” value is recorded as “reduced significantly”. For the same molecule, the “interaction with patient-derived ovarian cancer stem cells, signal intensity” value in series [4] is “the signal intensity is high”. Further, in series [5], the “expression of p-PAXILLIN” value was “inhibited”, the “expression of p-SRC” value was “inhibited” and the “expression of the p-FAK Y925 site” value is “reduced”. In series [6], the “expression of p-PAXILLIN” value was “not affected”, the “expression of p-SRC” value is given as “not affected” and the “expression of the p-FAK Y925 site” value is reported as “not affected”.

B2: AT4: 76-mer CD166 aptamer, N = NapdU: TCAGCCGCCAGCCAGTTCCNNCNAGAGNCANGCACGNNANCGGACCNGNCGGCGAANGGACCANANCACCACAGAG (nucleic acid)
DNA: TCAGCCGCCAGCCAGTTCCUUCUAGAGUCAUGCACGUUAUCGGACCUGUCGGCGAAUGGACCAUAUCACCACAGAG
modifications: DNA, [NapdU] at 20, 21, 23, 28, 31, 37, 38, 40, 47, 49, 57, 64, 66, backbone not given here
With B2, the affinity entry in series [1] is reported as “high affinity”. Further, the cell adhesion result in series [2] is on record as “reduced”.

The values are drawn from patent publication US12674167B2, “Aptamer specifically binding to cancer stem cells, and use thereof” (HiCELL Tech, priority 2019, dated 2026).
